# Assay results from the RNAGym collection of RNA variant scans (doi:10.1073/pnas.2313332121).
# B1: TPR t1 (parent)
# chain: GACCAAUCUGCCCUCAGAGCUCGAGAACAUCUUCGGAUGCAGAGGAGGCAGGCUUCGGUGGCGCGAUAGCGCCAACGUCCUCAACCUCCAAUGCAUCCCACCACAUGAUGAUGCCUGAAGAGCCUUGGUUUUUUG
# Variants of: B1
# Assay: polymerase ribozyme fitness, log enrichment relative to wild type (log ratio); higher = more active; in vitro selection for triplet polymerase activity
# How it was run: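 Fitness compares each genotype's enrichment to that of the wild type on a logarithmic scale, averaging replicates with inverse-variance weights. The logarithm is base 2. Enrichment came from Illumina sequencing of input and output libraries after one triplicate round of in vitro selection, which included frozen incubation at −7 °C, of PCR-built, transcribed mutant libraries of each subunit of a heterodimeric triplet polymerase ribozyme. Only genotypes with ≥10 input reads and ≥1 read per output were kept.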
row,Variant,polymerase ribozyme fitness (log ratio)
1,GACCAAUCUGCCCUCAGAGCUCGAGAACAUCUUCGGAUGCAGAGGAGGCAGGCUUCGGUGGCGUGAUAGCGCCAACGUCCUCAACCUCCAAUGCAUCCCACCUCAUGAUGAUGCCUGAAGAGCCUUGGUUUUUUG [C64U A103U],-3.47
2,GACCAAUCUGCCCUCAGAGCUCGAGAACAUCUUCGGAUGCAGAGGAGGCAGGCUUCGGUGGCGUGAUAGCGCCAACGUCCUCAACCUCCAAUGCAUCCCACCACAUGAUGAUGGCUGAAGAGCCUUGGUUUUUUG [C64U C114G],-2.3
3,GACCAAUCUGCCCUCAGAGCUCGAGAACAUCUUCGGAUGCAGAGGAGGCAGGCUUCGGUGGCGUGAUAGCGCCAACGUUCUCAACCUCCAAUGCAUCCCACCACAAGAAGAUGCCUGAAGAGCCUUGGUUUUUUG [C64U C79U U106A U109A],-5.15
4,GACCAAUCUGCCCUCAGAGCUCGAGAACAUCUUCGGAUGCAGAGGAGGCAGGCUUCGGUGGCGUGAUAGCGCCAACGUCCUCAACCUCCAAUGCAUCCCACCACAUGAUGCCGCCUGAAGAGCCUUGGUUUUUUG [C64U A111C U112C],-0.987
5,GACCAAUCUGCCCUCAGAGCUCGAGAACAUCUUCGGAUGCAGAGGAGGCAGGCUUCGGUGGCGUGAUAGCGCCAACGUCCUAAACCUCCAUUGCAUCCCACCACAUGAUGAUGCCUGAAGAGCCUUUGUUUUUUG [C64U C82A A91U G127U],-2.81
6,GACCAAUCUGCCCUCAGAGCUCGAGAACAUCUUCGGAUGCAGAGGAGGCAGGCUUCGGUGGCGUGAUAGCGCCAACGUCCUCAACCUCCAAUGCAUCCCACCACAUGAUGAUGCCUGAAGAGCAUUGGUUUUUUG [C64U C124A],1.41
7,GACCAAUCUGCCCUCAGAGCUCGAGAACAUCUUCGGAUGCAGAGGAGGCAGGCUUCGGUGGCGUGAUAGCGCGAACGUCCUCAACCUCCAAUGUAUCCCACCACAUGAUGAUGCCUGAACAGCCUUGGUUUUUUG [C64U C73G C94U G120C],-3.99
8,GACCAAUCUGCCCUCAGAGCUCGAGAACAUCUUCGGAUGCAGAGGAGGCAGGCUUCGGUGGCGUGAUAGCGCCAACGUCCUUAACCUCCAAUUUACCCCACCACAUGAUGAUGCCUGAAGAGUCUUGGUUUUUUG [C64U C82U G93U C94U U96C C123U],-3.01
9,GACCAAUCUGCCCUCAGAGCUCGAGAACAUCUUCGGAUGCAGAGGAGGCAGGCUUCGGUGGCGUGAUAGCGCCAACGUCCUAAACCUCCAAUGCAUCCCACCACAUGAUGAUGCCUGAAGAGCAUUGGUUUUUUG [C64U C82A C124A],1.31
10,GACCAAUCUGCCCUCAGAGCUCGAGAACAUCUUCGGAUGCAGAGGAGGCAGGCUUCGGUGGCGUGAUAGCGCCAACGUCCUCAACCUCCAAUGCAUCCCACCACAUGAUGAUGCUUGAAGAGCCUUGGUAUUUUG [C64U C115U U130A],-1.66
11,GACCAAUCUGCCCUCAGAGCUCGAGAACAUCUUCGGAUGCAGAGGAGGCAGGCUUCGGUGGCGUGAUAGCGCCAACGUCCUCAACCUCAAAUGCAUCCCACCACAUGAUGAUGCCUGAAGAGCCUUGGUUUUUUG [C64U C89A],-1.58
12,GACCAAUCUGCCCUCAGAGCUCGAGAACAUCUUCGGAUGCAGAGGAGGCAGGCUUCGGUGGCGUGAUAGCGCCAACGUCCUCAACCUCUAAUGCAUCCCACCACAUGAUGAUGCCUGAAGAGCCUUGGUUUUUUG [C64U C89U],-0.57
13,GACCAAUCUGCCCUCAGAGCUCGAGAACAUCUUCGGAUGCAGAGGAGGCAGGCUUCGGUGGCGUGAUAGCGCCAACGUCCUCAACCUCGAAUGCAUCCCACCACAUGAUGAUGCCUGAAGAGCCUUGGUUUUUUG [C64U C89G],-1.73
14,GACCAAUCUGCCCUCAGAGCUCGAGAACAUCUUCGGAUGCAGAGGAGGCAGGCUUCGGUGGCGUGAUAGCGCCAACGUCCUCAACCUCCAAUGCAUACCACCACAUGAUGAUGCCUGAAGAGCCUUGGUUUUUUG [C64U C97A],-5.08
15,GACCAAUCUGCCCUCAGAGCUCGAGAACAUCUUCGGAUGCAGAGGAGGCAGGCUUCGGUGGCGUGAUAGCGCCAACGUCCUCAACCUCCAAUGCGUCCCACCACAUGAUGAUGCGUGAAGAGCCUUGGUUUUUUG [C64U A95G C115G],-2.07
16,GACCAAUCUGCCCUCAGAGCUCGAGAACAUCUUCGGAUGCAGAGGAGGCAGGCUUCGGUGGCGUGAUAGCGCCAACGUCCUCAAACUCCAAUGCAGCCCACCACAUGAUGAUGCCUGAAGAGCCAUGGUUUUUUG [C64U C85A U96G U125A],-2.82
17,GACCAAUCUGCCCUCAGAGCUCGAGAACAUCUUCGGAUGCAGAGGAGGCAGGCUUCGGUGGCGUGAUAGCGACAACGUCCUCAACCUCCAAUGCAUCCCACCACAUGCUGAUGCCUGAAGAGCCUUGGUUUUUUG [C64U C72A A108C],-5.82
18,GACCAAUCUGCCCUCAGAGCUCGAGAACAUCUUCGGAUGCAGAGGAGGCAGGCUUCGGUGGCGUGAUAGAGCCAACGUCCUCAACCUCCAAUGCAUCCCACCACAUGAUGCUGCGUGAAGAGCCUUGUUUUUUUG [C64U C70A A111C C115G G128U],-5.81
19,GACCAAUCUGCCCUCAGAGCUCGAGAACAUCUUCGGAUGCAGAGGAGGCAGGCUUCGGUGGCGUAAUAGCGCCAACGUCCUCAACCUCCAAUGCAUCCCACCACAUGAUGAUGCCUGAAGAGCCUUGGUUUUUUG [C64U G65A],-4.3
20,GACCAAUCUGCCCUCAGAGCUCGAGAACAUCUUCGGAUGCAGAGGAGGCAGGCUUCGGUGGCGUGAUAGCGCCAACGUCCUCAACCUCCAAUGCAUCCCAUCACAUGAUGAUGCCUGAAGAGCCUUGGUUUUUUG [C64U C101U],0.0607
21,GACCAAUCUGCCCUCAGAGCUCGAGAACAUCUUCGGAUGCAGAGGAGGCAGGCUUCGGUGGCGUGAUAGCGUCAACGUCCUCGACCUCCAAUGCAUCCCACCACAUGAUGAUGCCUGAAGAGCCUUGGUUUUGUG [C64U C72U A83G U133G],-1.1
